In patent EP1454989A1:

How the values were obtained:
human CD81 (human) = human CD81 (human) (UniProt P60033); assay: cell-based or functional assay
[1] = biological target: HCV E2 glycoprotein of genotype 1a (hepatitis C virus genotype 1a) (UniProt P27958); assay: cell-based or functional assay

Substance: JS-81 anti-CD81 monoclonal antibody
- inhibition of infection by HCVpp of genotypes 1a and 1b (target cells pre-incubated with antibody at 30 µg/ml) (human CD81 (human)): > 90%

Substance: recombinant GST-fusion polypeptide encompassing the large extra-cellular loop (LEL) of human CD81 (from UniProt P60033 113-201)
- inhibition of infectivity of HCVpp on Huh-7 cells (polypeptide at 4, 8, 16 µg/ml pre-incubated with the pseudo-particles) [1]: 38 to 54%
